# Tested on: Rrp5_C8;Rok1 (Saccharomyces cerevisiae;Saccharomyces cerevisiae)
# Test: glycerol gradient sedimentation
# Conditions: EMSA: 200 mM KCl, 10 mM MgCl2, 40 mM HEPES/KOH pH 7.5, 10 mM Mg-AMPPCP or 1 mM Mg-ADP, 12 min 25 C, native gel 4 C. 40S binding: 200 mM KOAc, 20 mM HEPES/KOH …
substance,measurement,setting,value
mature 40S ribosomal subunit (18S rRNA),binding signal,"400 uM ADP, 98% of Rrp5 free",2 % Rrp5 bound
same,binding signal,4 mM AMPPCP,15 % Rrp5 bound
